Source: paper PMC4863600

Target: D. radiodurans DNA gyrase holoenzyme (reconstituted from GyrA::6His and 6His::GyrB) (D. radiodurans) (UniProt Q9RT53)

decatenation of kDNA by DNA gyrase (4 nM) with increasing concentrations of PprA; ratio of minicircles released with PprA over without PprA: 7 fold
B1: PprA::6His protein (natural protein)
chain: MLPLAFLICSGHNKGSMARAKAKDQTDGIYAAFDTLMSTAGVDSQIAALAASEADAGTLDAALTQSLQEAQGRWGLGLHHLRHEARLTDDGDIEILTDGRPSARVSEGFGALAQAYAPMQALDERGLSQWAALGEGYRAPGDLPLAQLKVLIEHARDFETDWSAGRGETFQRVWRKGDTLFVEVARPASAEAALSDAAWDVIASIKDRAFQRELMRRSEKDGMLGALLGARHAGAKANLAQLPEAHFTVQAFVQTLSGAAARNAEEYRAALKTAAAALEEYQGVTTRQLSEVLRHGLRES
